According to patent US20070244048A1 (published 2007):
Starred links: 1 amine or outer side, 2 acyl side, 3 side chain; linkers in the order of their positions; H or OH if unused. Non-standard residues stand in square brackets, D forms with d. *: point of attachment. Ttds = 1-amino-4,7,10-trioxa-13-tridecanamine succinimic acid spacer, O=C(CCC(=O)[*:2])NCCCOCCOCCOCCCN[*:1]; (PEG)2 40 kDa = branched PEG of 40 kDa linked via the Cys side-chain thiol (code C2 = Cys(PEG)2 40 kDa); Succinimide(1-Et,3-yl) = CCN1C(=O)CC(*)C1=O

T1: human NMUR1 (human, UniProt Q9HB89 1-426)
T1 sequence (looked up): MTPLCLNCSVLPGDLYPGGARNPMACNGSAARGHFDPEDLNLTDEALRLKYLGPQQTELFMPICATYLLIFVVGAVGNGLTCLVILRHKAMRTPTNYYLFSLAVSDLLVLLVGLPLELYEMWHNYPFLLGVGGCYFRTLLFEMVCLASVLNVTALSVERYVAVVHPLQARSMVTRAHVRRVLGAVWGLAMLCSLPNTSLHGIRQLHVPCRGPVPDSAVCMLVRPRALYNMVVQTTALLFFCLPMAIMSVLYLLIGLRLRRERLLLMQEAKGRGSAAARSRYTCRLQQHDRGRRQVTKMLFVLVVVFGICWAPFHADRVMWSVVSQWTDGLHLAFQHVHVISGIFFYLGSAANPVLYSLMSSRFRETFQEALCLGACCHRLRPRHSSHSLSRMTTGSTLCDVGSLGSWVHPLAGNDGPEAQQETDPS

T2: mouse NMUR1-ATG (mouse, UniProt O55040 1-428)
T2 sequence (looked up): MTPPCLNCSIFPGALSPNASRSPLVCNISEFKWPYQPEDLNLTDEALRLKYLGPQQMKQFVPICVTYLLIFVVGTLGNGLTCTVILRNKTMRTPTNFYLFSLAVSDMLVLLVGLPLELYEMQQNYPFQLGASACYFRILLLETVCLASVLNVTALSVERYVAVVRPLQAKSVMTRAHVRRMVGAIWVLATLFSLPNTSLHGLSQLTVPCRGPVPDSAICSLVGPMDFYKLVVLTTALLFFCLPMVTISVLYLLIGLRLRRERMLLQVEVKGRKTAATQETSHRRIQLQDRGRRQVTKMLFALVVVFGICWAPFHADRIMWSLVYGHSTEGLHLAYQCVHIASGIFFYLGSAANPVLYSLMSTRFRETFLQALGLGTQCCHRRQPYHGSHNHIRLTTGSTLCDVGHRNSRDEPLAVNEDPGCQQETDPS

T3: mouse NMUR1-CTG (mouse, UniProt O55040 1-428)
T3 sequence (looked up): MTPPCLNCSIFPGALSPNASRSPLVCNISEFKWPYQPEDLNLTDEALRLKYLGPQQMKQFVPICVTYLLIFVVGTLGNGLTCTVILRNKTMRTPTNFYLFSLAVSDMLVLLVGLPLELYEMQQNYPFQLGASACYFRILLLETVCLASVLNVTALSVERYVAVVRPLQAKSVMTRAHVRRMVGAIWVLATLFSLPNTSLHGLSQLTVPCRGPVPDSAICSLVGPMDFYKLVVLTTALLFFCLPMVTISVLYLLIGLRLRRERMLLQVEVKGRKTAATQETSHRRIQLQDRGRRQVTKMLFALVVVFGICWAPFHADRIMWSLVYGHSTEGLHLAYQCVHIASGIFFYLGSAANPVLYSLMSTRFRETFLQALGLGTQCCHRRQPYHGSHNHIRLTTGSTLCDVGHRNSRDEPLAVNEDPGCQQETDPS

T4: rat NMUR1-ATG (rat, UniProt Q9JJI5 1-425)
T4 sequence (looked up): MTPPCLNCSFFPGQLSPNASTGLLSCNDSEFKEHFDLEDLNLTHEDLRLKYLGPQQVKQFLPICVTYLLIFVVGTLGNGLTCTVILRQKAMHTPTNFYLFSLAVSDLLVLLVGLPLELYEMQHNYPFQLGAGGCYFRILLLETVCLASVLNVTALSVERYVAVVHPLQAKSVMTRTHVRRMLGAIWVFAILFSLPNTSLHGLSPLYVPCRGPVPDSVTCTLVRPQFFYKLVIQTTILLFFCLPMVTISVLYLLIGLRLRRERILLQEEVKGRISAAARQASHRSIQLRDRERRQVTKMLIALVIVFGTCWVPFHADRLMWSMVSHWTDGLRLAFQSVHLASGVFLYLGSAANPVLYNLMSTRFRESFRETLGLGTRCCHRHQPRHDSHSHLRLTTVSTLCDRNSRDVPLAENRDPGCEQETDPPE

T5: rat NMUR1-TTG (rat, UniProt Q9JJI5 1-425)
T5 sequence (looked up): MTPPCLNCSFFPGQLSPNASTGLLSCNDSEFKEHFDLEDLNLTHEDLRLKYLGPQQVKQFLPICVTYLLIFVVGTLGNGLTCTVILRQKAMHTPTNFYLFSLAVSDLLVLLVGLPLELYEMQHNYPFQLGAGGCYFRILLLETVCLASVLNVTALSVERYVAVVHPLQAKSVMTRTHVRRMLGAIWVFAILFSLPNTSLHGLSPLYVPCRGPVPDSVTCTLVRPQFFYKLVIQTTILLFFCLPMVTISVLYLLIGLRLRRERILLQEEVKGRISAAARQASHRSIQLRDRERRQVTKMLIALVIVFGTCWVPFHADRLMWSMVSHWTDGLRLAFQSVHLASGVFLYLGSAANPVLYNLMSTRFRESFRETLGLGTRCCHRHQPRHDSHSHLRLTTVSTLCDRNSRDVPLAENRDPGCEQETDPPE


Tests used:
Assay in all cases: cell-based or functional assay
human NMUR1 = target: T1, human NMUR1
human NMUR2 = human NMUR2 (human, UniProt Q9GZQ4 1-415)
mouse NMUR1-ATG = target: T2, mouse NMUR1-ATG
mouse NMUR1-CTG = target: T3, mouse NMUR1-CTG
mouse NMUR2 = mouse NMUR2 (mouse, UniProt Q8BZ39 1-395)
rat NMUR1-ATG = target: T4, rat NMUR1-ATG
rat NMUR1-TTG = target: T5, rat NMUR1-TTG
rat NMUR2 = rat NMUR2 (rat, UniProt Q9ESQ4 1-395)
Sequence of rat NMUR2 (Q9ESQ4 whole entry): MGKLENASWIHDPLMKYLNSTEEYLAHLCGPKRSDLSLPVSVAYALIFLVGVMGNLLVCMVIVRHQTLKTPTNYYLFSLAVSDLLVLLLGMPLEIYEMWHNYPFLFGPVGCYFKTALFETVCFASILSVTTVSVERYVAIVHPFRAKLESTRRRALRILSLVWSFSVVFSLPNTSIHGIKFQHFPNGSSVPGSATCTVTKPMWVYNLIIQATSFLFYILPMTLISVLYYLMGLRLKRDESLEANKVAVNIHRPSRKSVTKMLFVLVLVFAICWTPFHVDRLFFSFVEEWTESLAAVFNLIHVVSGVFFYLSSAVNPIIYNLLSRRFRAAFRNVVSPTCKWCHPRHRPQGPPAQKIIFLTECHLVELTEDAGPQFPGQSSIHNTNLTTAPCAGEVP

Sequence of mouse NMUR2 (Q8BZ39 whole entry): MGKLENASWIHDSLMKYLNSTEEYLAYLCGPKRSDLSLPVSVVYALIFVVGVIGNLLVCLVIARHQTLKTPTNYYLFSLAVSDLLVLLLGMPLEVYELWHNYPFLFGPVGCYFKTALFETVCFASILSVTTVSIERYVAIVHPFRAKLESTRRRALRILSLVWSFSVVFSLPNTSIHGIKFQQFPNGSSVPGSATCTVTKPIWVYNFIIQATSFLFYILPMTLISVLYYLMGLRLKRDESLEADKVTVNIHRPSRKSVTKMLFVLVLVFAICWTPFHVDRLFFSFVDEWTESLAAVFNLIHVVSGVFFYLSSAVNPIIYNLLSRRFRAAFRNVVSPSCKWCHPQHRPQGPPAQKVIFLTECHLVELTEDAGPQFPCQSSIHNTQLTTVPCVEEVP
Sequence of human NMUR2 (Q9GZQ4 whole entry): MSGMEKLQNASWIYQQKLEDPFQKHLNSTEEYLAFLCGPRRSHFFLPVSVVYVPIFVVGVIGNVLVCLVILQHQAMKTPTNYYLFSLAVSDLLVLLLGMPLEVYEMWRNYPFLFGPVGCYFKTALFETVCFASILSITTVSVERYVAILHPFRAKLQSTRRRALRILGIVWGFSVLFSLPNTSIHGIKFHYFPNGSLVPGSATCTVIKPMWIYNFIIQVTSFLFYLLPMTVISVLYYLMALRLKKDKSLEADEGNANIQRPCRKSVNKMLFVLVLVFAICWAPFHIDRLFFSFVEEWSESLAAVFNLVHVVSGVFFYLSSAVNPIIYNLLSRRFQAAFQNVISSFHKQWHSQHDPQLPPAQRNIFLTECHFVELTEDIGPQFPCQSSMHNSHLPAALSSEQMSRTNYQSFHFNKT

| % Activity (FLIPR) (human NMUR1) | EC50 (FLIPR) (human NMUR1) | % Activity (FLIPR) (human NMUR2) | EC50 (FLIPR) (human NMUR2) | % Activity (FLIPR) (mouse NMUR1-ATG) | EC50 (FLIPR) (mouse NMUR1-ATG) | % Activity (FLIPR) (mouse NMUR1-CTG) | EC50 (FLIPR) (mouse NMUR1-CTG) | % Activity (FLIPR) (mouse NMUR2) | EC50 (FLIPR) (mouse NMUR2) | % Activity (FLIPR) (rat NMUR1-ATG) | EC50 (FLIPR) (rat NMUR1-ATG) | % Activity (FLIPR) (rat NMUR1-TTG) | EC50 (FLIPR) (rat NMUR1-TTG) | % Activity (FLIPR) (rat NMUR2) | EC50 (FLIPR) (rat NMUR2) | Binder |
| --- | --- | --- | --- | --- | --- | --- | --- | --- | --- | --- | --- | --- | --- | --- | --- | --- |
| 100% | 5 nM | 99.8% | 1.5 nM | 100% | 1.2 nM | 117% | 2.9 nM | 100% | 0.5 nM | 100% | 0.9 nM | 105% | 4.9 nM | 100% | 1.2 nM | Ac-C(Succinimide(1-Et,3-yl))ASQSRGYFLFRPRN-NH2 (SMILES CCN1C(=O)CC(SC[C@H](NC(C)=O)C(=O)N[C@@H](C)C(=O)N[C@@H](CO)C(=O)N[C@@H](CCC(N)=O)C(=O)N[C@@H](CO)C(=O)N[C@@H](CCCNC(=N)N)C(=O)NCC(=O)N[C@@H](Cc2ccc(O)cc2)C(=O)N[C@@H](Cc2ccccc2)C(=O)N[C@@H](CC(C)C)C(=O)N[C@@H](Cc2ccccc2)C(=O)N[C@@H](CCCNC(=N)N)C(=O)N2CCC[C@H]2C(=O)N[C@@H](CCCNC(=N)N)C(=O)N[C@@H](CC(N)=O)C(N)=O)C1=O) [NMU17] |
| 74% | 1000 nM | 75% | 1000 nM | 100% | 24.1 nM | 57.2% | 651 nM | 97.4% | 138 nM | 75.4% | 418 nM | 34.6% | 1000 nM | 86.9% | 315 nM | Ac-C((PEG)2 40 kDa)[Ttds]FLFRPRN-NH2 [NMU16] |
| 93.2% | 14.5 nM | 97.9% | 24.2 nM | 100% | 9.1 nM | 90.8% | 56.3 nM | 100% | 1.6 nM | 99.9% | 19.5 nM | 77.5% | 220 nM | 99.2% | 7 nM | Ac-C(PEG 20 kDa)FRVDEEFQSPFASQSRGYFLFRPRN-NH2 [NMU21] |
| 100% | 16.4 nM | 100% | 13 nM | 100% | 12.7 nM | 65.4% | 480 nM | 100% | 14.8 nM | 100% | 7.2 nM | 93.8% | 24.4 nM | 100% | 16.9 nM | Ac-C((PEG)2 40 kDa)FQSPFASQSRGYFLFRPRN-NH2 [NMU20] |
| 97.1% | 68.1 nM | 101% | 65.7 nM | 100% | 15.2 nM | 57.7% | 693 nM | 100% | 50.2 nM | 95.9% | 28.6 nM | 90.7% | 105 nM | 96.7% | 63 nM | Ac-C((PEG)2 40 kDa)ASQSRGYFLFRPRN-NH2 [NMU18] |
| 66.9% | 300 nM | 71.7% | 1000 nM | 100% | 14 nM | 50.9% | 770 nM | 100% | 21.3 nM | 76.4% | 127 nM | 39.8% | 1000 nM | 90.2% | 47.4 nM | Ac-C(PEG 20 kDa)C(PEG 20 kDa)FRVDEEFQSPFASQSRGYFLFRPRN-NH2 [NMU23] |
| 95.6% | 10.2 nM | 105% | 6.5 nM | 100% | 6.2 nM | 100% | 43.5 nM | 100% | 6.9 nM | 100% | 14 nM | 96.4% | 39.1 nM | 98.8% | 17.1 nM | Ac-C(Succinimide(1-Et,3-yl))C(Succinimide(1-Et,3-yl))FRVDEEFQSPFASQSRGYFLFRPRN-NH2 [NMU22] |
| 91.5% | 7.7 nM | 101% | 4.2 nM | 100% | 1.5 nM | 100% | 4 nM | 100% | 0.6 nM | 100% | 4.2 nM | 108% | 24.6 nM | 100% | 2.2 nM | Ac-C(Succinimide(1-Et,3-yl))[Ttds]FLFRPRN-NH2 (SMILES CCN1C(=O)CC(SC[C@H](NC(C)=O)C(=O)NCCCOCCOCCOCCCNC(=O)CCC(=O)N[C@@H](Cc2ccccc2)C(=O)N[C@@H](CC(C)C)C(=O)N[C@@H](Cc2ccccc2)C(=O)N[C@@H](CCCNC(=N)N)C(=O)N2CCC[C@H]2C(=O)N[C@@H](CCCNC(=N)N)C(=O)N[C@@H](CC(N)=O)C(N)=O)C1=O) [NMU15] |
| 95.9% | 38.9 nM | 105% | 11.5 nM | 100% | 7.9 nM | 111% | 22.5 nM | 100% | 5.6 nM | 100% | 6.8 nM | 100% | 12.8 nM | 100% | 8.7 nM | Ac-C(Succinimide(1-Et,3-yl))FQSPFASQSRGYFLFRPRN-NH2 (SMILES CCN1C(=O)CC(SC[C@H](NC(C)=O)C(=O)N[C@@H](Cc2ccccc2)C(=O)N[C@@H](CCC(N)=O)C(=O)N[C@@H](CO)C(=O)N2CCC[C@H]2C(=O)N[C@@H](Cc2ccccc2)C(=O)N[C@@H](C)C(=O)N[C@@H](CO)C(=O)N[C@@H](CCC(N)=O)C(=O)N[C@@H](CO)C(=O)N[C@@H](CCCNC(=N)N)C(=O)NCC(=O)N[C@@H](Cc2ccc(O)cc2)C(=O)N[C@@H](Cc2ccccc2)C(=O)N[C@@H](CC(C)C)C(=O)N[C@@H](Cc2ccccc2)C(=O)N[C@@H](CCCNC(=N)N)C(=O)N2CCC[C@H]2C(=O)N[C@@H](CCCNC(=N)N)C(=O)N[C@@H](CC(N)=O)C(N)=O)C1=O) [NMU19] |
